One data set has as its target mannose receptor CD206 (Homo sapiens, UniProt P22897). Particulars: when administered to mammals; no other receptors bind or transduce. The text has this:
CD206 is a C-type […] binding protein found on the surface of macrophages.

The conditions of data set [1]: used to stage breast cancer and melanoma; cited from earlier work.

Chain of mannose receptor CD206 (P22897 19-1456): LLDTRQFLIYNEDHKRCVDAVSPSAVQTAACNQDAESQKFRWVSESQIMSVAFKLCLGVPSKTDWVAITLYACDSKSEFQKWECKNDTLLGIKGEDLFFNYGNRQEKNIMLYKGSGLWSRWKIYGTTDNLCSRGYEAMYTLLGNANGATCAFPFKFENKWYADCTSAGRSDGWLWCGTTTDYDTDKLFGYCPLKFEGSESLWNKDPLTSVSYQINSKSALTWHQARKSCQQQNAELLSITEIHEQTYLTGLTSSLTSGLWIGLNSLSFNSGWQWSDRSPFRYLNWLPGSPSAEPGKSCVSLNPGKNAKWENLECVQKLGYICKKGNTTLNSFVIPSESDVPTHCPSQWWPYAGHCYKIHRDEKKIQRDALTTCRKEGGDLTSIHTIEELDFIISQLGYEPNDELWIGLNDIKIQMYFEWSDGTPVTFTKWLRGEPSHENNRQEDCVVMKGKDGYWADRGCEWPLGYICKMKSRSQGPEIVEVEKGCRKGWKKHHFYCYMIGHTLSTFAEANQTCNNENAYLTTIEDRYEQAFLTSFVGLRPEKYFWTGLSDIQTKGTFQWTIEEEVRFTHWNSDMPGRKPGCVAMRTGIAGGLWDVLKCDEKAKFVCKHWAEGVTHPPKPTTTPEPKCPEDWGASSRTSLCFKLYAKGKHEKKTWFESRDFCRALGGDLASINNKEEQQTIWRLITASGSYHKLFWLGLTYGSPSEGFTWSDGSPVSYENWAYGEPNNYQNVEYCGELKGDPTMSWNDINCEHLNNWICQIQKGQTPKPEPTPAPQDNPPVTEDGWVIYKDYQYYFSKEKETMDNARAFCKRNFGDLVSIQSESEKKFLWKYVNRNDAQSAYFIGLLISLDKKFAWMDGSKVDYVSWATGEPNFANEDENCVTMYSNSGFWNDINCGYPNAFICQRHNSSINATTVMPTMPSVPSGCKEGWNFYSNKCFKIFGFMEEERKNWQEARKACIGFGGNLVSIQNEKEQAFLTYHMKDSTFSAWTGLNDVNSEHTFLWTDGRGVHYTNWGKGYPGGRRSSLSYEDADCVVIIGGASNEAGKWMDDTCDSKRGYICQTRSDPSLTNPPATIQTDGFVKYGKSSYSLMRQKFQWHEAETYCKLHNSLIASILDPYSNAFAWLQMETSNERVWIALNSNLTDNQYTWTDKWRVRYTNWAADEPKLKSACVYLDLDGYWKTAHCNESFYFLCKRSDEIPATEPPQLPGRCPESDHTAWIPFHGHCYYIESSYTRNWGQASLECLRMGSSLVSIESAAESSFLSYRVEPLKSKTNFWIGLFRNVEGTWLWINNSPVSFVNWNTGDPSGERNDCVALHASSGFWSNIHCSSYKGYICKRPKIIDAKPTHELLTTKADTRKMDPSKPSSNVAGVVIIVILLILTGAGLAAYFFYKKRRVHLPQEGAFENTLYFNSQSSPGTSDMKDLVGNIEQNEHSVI

On to “dextran 3-[(2-aminoethyl)thio]propyl 17-carboxy-10,13,16-tris(carboxymethyl)-8-oxo-4-thia-7,10,13,16-tetraazaheptadec-1-yl 3-[[2-[[1-imino-2-(D-mannopyranosylthio) ethyl]amino]ethyl]thio]propyl ether complexes [tilmanocept]”, for which, at mannose receptor CD206, the receptor binding specificity entry was “bind exclusively to the mannose receptor CD206”.

For “technetium Tc 99m, dextran 3-[(2-aminoethyl)thio]propyl 17-carboxy-10,13,16-tris(carboxymethyl)-8-oxo-4-thia-7,10,13,16-tetraazaheptadec-1-yl 3-[[2-[[1-imino-2-(D-mannopyranosylthio) ethyl]amino]ethyl]thio]propyl ether complexes [technetium Tc 99m labeled tilmanocept]”, in data set [1], the “clearance from injection site” value was “rapid clearance from an injection site”; the “uptake by distal or second-echelon lymph nodes” value was “low uptake by distal or second-echelon lymph nodes”; the “uptake by sentinel lymph node(s)” value was “rapid and sustained uptake by the sentinel lymph node(s)”.

The record behind these values is patent US20210338848A1, “COMPOSITIONS AND METHODS FOR DIAGNOSING AND TREATING MACROPHAGE-RELATED DISORDERS USING CARBOHYDRATE-BASED MACR[…]” (Cardinal Health 414, LLC, priority 2016, published 2021).
